Measured values taken from patent US20180155451A1 (published 2018).

T1: FcγRIIb extracellular domain with C-terminal His tag (human, UniProt P31994 43-217)
T1 construct: extracellular domain; also called FcgRIIb; 2b; not shown: His tag at the C terminus
T1 sequence (looked up): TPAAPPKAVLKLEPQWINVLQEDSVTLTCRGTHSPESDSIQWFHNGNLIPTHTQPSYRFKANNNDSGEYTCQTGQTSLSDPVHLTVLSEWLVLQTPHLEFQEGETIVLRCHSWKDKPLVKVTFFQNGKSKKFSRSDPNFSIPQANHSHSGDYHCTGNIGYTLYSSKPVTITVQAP

T2: FcγRIIa R (FcγRIIa, allotype R: Arg at position 131) extracellular domain with C-terminal His tag (human, UniProt P12318 34-217)
T2 construct: extracellular domain; also called FcgRIIa R; 2aR; not shown: His tag at the C terminus
T2 sequence (looked up): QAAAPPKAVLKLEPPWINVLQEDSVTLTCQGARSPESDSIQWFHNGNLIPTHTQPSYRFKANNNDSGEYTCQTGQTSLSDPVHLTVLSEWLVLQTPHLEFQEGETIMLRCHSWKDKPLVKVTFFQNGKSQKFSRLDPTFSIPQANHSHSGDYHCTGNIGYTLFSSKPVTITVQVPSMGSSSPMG

T3: FcγRIIb extracellular domain with C-terminal His tag (human, UniProt P31994 43-217)
T3 construct: extracellular domain; Expressed in FreeStyle293 cells; analyte in the Biacore assay; also called FcgRIIb; 2b; not shown: His tag at the C terminus
T3 sequence (looked up): T1 sequence (looked up)

B1: GpH7-A5/GpH7-B3 variant G236_02A/GpL16-k0 (antibody, human IgG1, kappa)
heavy 1: not shown
heavy 2: not shown
light: DIVMTQSPLSLPVTPGEPASISCQASESLVHSNRNTYLHWYLQKPGQSPQLLIYKVSNRFSGVPDRFSGSGSGTDFTLKISRVEAEDVGVYYCSQNTHVPPTFGQGTKVEIERTVAAPSVFIFPPSDEQLKSGTASVVCLLNNFYPREAKVQWKVDNALQSGNSQESVTEQDSKDSTYSLSSTLTLSKADYEKHKVYACEVTHQGLSSPVTKSFNRGEC
notes: He Ab: alteration in the GpH7-B3 H chain only; also called He Ab
B2: GpH7-A5/GpH7-B3 variant G237_11K/GpL16-k0 (antibody, human IgG1, kappa)
heavy 1: not shown
heavy 2: not shown
light: B1 light
notes: as for B1
B3: GpH7-A5/GpH7-B3 variant G237_12R/GpL16-k0 (antibody, human IgG1, kappa)
heavy 1: not shown
heavy 2: not shown
light: B1 light
notes: as for B1
B4: GpH7-A5/GpH7-B3 variant L235_12R/GpL16-k0 (antibody, human IgG1, kappa)
heavy 1: not shown
heavy 2: not shown
light: B1 light
notes: as for B1
B5: GpH7-A5/GpH7-B3 variant S324_07I/GpL16-k0 (He Ab) (antibody, human IgG1, kappa)
heavy 1: not shown
heavy 2: not shown
light: B1 light
notes: Heterodimerized anti-glypican-3 IgG1; the mutation stands in the GpH7-B3 chain only
B6: GpH7-A5/GpH7-B3 variant Y300_01G/GpL16-k0 (He Ab) (antibody, human IgG1, kappa)
heavy 1: not shown
heavy 2: not shown
light: B1 light
notes: as for B5
B7: GpH7-A5/GpH7-B3 variant Y300_02A/GpL16-k0 (He Ab) (antibody, human IgG1, kappa)
heavy 1: not shown
heavy 2: not shown
light: B1 light
notes: as for B5
B8: GpH7-A5/GpH7-B3 variant Y300_03V/GpL16-k0 (He Ab) (antibody, human IgG1, kappa)
heavy 1: not shown
heavy 2: not shown
light: B1 light
notes: as for B5
B9: GpH7-A5/GpH7-B3 variant Y300_06M/GpL16-k0 (He Ab) (antibody, human IgG1, kappa)
heavy 1: not shown
heavy 2: not shown
light: B1 light
notes: as for B5
B10: GpH7-A5/GpH7-B3 variant Y300_07I/GpL16-k0 (He Ab) (antibody, human IgG1, kappa)
heavy 1: not shown
heavy 2: not shown
light: B1 light
notes: as for B5
B11: GpH7-A5/GpH7-B3 variant Y300_08L/GpL16-k0 (He Ab) (antibody, human IgG1, kappa)
heavy 1: not shown
heavy 2: not shown
light: B1 light
notes: as for B5
B12: GpH7-A5/GpH7-B3 variant Y300_09D/GpL16-k0 (He Ab) (antibody, human IgG1, kappa)
heavy 1: not shown
heavy 2: not shown
light: B1 light
notes: as for B5
B13: GpH7-A5/GpH7-B3 variant Y300_11K/GpL16-k0 (He Ab) (antibody, human IgG1, kappa)
heavy 1: not shown
heavy 2: not shown
light: B1 light
notes: as for B5
B14: GpH7-A5/GpH7-B3 variant Y300_12R/GpL16-k0 (He Ab) (antibody, human IgG1, kappa)
heavy 1: not shown
heavy 2: not shown
light: B1 light
notes: as for B5
B15: GpH7-A5/GpH7-B3 variant Y300_13S/GpL16-k0 (He Ab) (antibody, human IgG1, kappa)
heavy 1: not shown
heavy 2: not shown
light: B1 light
notes: as for B5
B16: GpH7-A5/GpH7-B3 variant Y300_14T/GpL16-k0 (He Ab) (antibody, human IgG1, kappa)
heavy 1: not shown
heavy 2: not shown
light: B1 light
notes: as for B5
B17: GpH7-A5/GpH7-B3 variant Y300_16H/GpL16-k0 (He Ab) (antibody, human IgG1, kappa)
heavy 1: not shown
heavy 2: not shown
light: B1 light
notes: as for B5
B18: GpH7-A5/GpH7-B3 variant Y300_20W/GpL16-k0 (He Ab) (antibody, human IgG1, kappa)
heavy 1: not shown
heavy 2: not shown
light: B1 light
notes: as for B5

Each binder was assayed against T1, FcγRIIb extracellular domain with … (assay: SPR Biacore, antibody captured, FcgR analyte; vs HeCon Ab GpH7-A5/GpH7-B3/GpL16-k0 = 100).
Protocol: (§1) The heterodimerized antibodies He Abs in which one of the H chains was introduced with an alteration were assayed for their binding activities to each activating FcγR and inhibitory FcγR according to the method described in Example 4. […] The activating FcγRs in FIGS. 26, 27, 28, and 29 are FcγRIa, FcγRIIa (R), FcγRIIa (H), and FcγRIIIa, respectively.
(§2) Analysis of interaction between objective antibody and the FcγR was carried out using Biacore T100 (GE Healthcare). HBS-EP+ (GE Healthcare) was used as the running buffer, and the measurement temperature was set to 25° C. Chips produced by immobilizing the antigen peptide by the amine coupling method to a Series S Sencor Chip CM5 (GE Healthcare), or alternatively, chips produced by allowing preliminarily biotinylated antigen peptides to interact with and immobilize onto a Series S Sensor Chip SA (certified) (GE Healthcare) were used. Antibodies of interest were captured onto an antigen peptide-immobilized chip, and allowed to interact to each FcγR diluted with running buffer. To regenerate and repeatedly use the chip, the antibodies captured on the chip were washed off by reacting 10 mM glycine-HCl, pH 1.5.

In the case of B1, the He/Con_2b is reported as 96.5 control = 100.

What follows are binders tested against T2, FcγRIIa R (FcγRIIa, allotype R: Arg at …) in the same assay as above.
Protocol: as §1, §2

First: B1
Second: B2
The He/Con_2aR of the first is higher: 146 control = 100 for the first, 17.1 control = 100 for the second.

Going from B3 to B4, the He/Con_2aR falls from 24.2 control = 100 to 16.2 control = 100.

These binders were tested against T2, FcγRIIa R (FcγRIIa, allotype R: Arg at …) (assay: ratio He/Con_2aR : He/Con_2b (FcgRIIa R over FcgRIIb), SPR Biacore).
Protocol: as §1, §2

Going from B1 to B2, the “He_2aR/2b (IIaR/IIb)” value rises from 1.51 to 1.9.

First: B3
Second: B4
The “He_2aR/2b (IIaR/IIb)” value of the first is higher: 2.47 for the first, 1.69 for the second.

What follows are binders tested against T3, FcγRIIb extracellular domain with … (assay: SPR (Biacore), antibody captured on antigen-peptide chip, FcγR as analyte; relative binding).

First: B5
Second: B6
The He/Con_2b of the first is higher: 95.7 % of GpH7-A5/GpH7-B3/GpL16-k0 (=100) for the first, 48.4 % of GpH7-A5/GpH7-B3/GpL16-k0 (=100) for the second.

Going from B7 to B8, the He/Con_2b rises from 69.2 % of GpH7-A5/GpH7-B3/GpL16-k0 (=100) to 73.9 % of GpH7-A5/GpH7-B3/GpL16-k0 (=100).

Compared with B9, B10 is lower in He/Con_2b: 84.3 % of GpH7-A5/GpH7-B3/GpL16-k0 (=100) for the first, 74.5 % of GpH7-A5/GpH7-B3/GpL16-k0 (=100) for the second.

First: B11
Second: B12
The He/Con_2b of the first is lower: 73.6 % of GpH7-A5/GpH7-B3/GpL16-k0 (=100) for the first, 93.2 % of GpH7-A5/GpH7-B3/GpL16-k0 (=100) for the second.

Compared with B13, B14 is lower in He/Con_2b: 51.6 % of GpH7-A5/GpH7-B3/GpL16-k0 (=100) for the first, 41.2 % of GpH7-A5/GpH7-B3/GpL16-k0 (=100) for the second.

Compared with B15, B16 is higher in He/Con_2b: 53.9 % of GpH7-A5/GpH7-B3/GpL16-k0 (=100) for the first, 55.6 % of GpH7-A5/GpH7-B3/GpL16-k0 (=100) for the second.

First: B17
Second: B18
The He/Con_2b of the first is higher: 87 % of GpH7-A5/GpH7-B3/GpL16-k0 (=100) for the first, 84.1 % of GpH7-A5/GpH7-B3/GpL16-k0 (=100) for the second.

Each binder was assayed against T4, FcγRIa extracellular domain with C-terminal His tag (human, UniProt P12314 16-292) in the same assay as above.
T4 construct: extracellular domain; Expressed in FreeStyle293 cells; analyte in the Biacore assay; also called FcgRI; 1a; not shown: His tag at the C terminus
T4 sequence (P12314 16-292): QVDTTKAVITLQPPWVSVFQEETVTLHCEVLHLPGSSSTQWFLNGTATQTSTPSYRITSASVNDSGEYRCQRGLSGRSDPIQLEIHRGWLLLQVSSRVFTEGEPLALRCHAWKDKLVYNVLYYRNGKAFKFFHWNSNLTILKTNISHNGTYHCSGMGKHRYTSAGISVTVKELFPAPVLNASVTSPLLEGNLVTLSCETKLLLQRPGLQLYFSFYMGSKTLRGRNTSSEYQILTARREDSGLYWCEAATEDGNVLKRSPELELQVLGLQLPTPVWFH

Going from B5 to B6, the He/Con_1a rises from 102 % of GpH7-A5/GpH7-B3/GpL16-k0 (=100) to 116 % of GpH7-A5/GpH7-B3/GpL16-k0 (=100).

Going from B7 to B8, the He/Con_1a rises from 112 % of GpH7-A5/GpH7-B3/GpL16-k0 (=100) to 117 % of GpH7-A5/GpH7-B3/GpL16-k0 (=100).

Going from B9 to B10, the He/Con_1a falls from 112 % of GpH7-A5/GpH7-B3/GpL16-k0 (=100) to 108 % of GpH7-A5/GpH7-B3/GpL16-k0 (=100).

First: B11
Second: B12
The He/Con_1a of the first is higher: 113 % of GpH7-A5/GpH7-B3/GpL16-k0 (=100) for the first, 112 % of GpH7-A5/GpH7-B3/GpL16-k0 (=100) for the second.

First: B13
Second: B14
The He/Con_1a of the first is higher: 107 % of GpH7-A5/GpH7-B3/GpL16-k0 (=100) for the first, 105 % of GpH7-A5/GpH7-B3/GpL16-k0 (=100) for the second.

Going from B15 to B16, the He/Con_1a rises from 111 % of GpH7-A5/GpH7-B3/GpL16-k0 (=100) to 112 % of GpH7-A5/GpH7-B3/GpL16-k0 (=100).

First: B17
Second: B18
The He/Con_1a of the first is lower: 111 % of GpH7-A5/GpH7-B3/GpL16-k0 (=100) for the first, 112 % of GpH7-A5/GpH7-B3/GpL16-k0 (=100) for the second.
